Where two headings read alike, the source gives them in different places.
How the values were obtained:
[1] = target: T1, mineralocorticoid receptor (MR), NanoBiT fusion LgBiT-MR (UniProt P08235 1-984); assay: split reporter
T1 sequence: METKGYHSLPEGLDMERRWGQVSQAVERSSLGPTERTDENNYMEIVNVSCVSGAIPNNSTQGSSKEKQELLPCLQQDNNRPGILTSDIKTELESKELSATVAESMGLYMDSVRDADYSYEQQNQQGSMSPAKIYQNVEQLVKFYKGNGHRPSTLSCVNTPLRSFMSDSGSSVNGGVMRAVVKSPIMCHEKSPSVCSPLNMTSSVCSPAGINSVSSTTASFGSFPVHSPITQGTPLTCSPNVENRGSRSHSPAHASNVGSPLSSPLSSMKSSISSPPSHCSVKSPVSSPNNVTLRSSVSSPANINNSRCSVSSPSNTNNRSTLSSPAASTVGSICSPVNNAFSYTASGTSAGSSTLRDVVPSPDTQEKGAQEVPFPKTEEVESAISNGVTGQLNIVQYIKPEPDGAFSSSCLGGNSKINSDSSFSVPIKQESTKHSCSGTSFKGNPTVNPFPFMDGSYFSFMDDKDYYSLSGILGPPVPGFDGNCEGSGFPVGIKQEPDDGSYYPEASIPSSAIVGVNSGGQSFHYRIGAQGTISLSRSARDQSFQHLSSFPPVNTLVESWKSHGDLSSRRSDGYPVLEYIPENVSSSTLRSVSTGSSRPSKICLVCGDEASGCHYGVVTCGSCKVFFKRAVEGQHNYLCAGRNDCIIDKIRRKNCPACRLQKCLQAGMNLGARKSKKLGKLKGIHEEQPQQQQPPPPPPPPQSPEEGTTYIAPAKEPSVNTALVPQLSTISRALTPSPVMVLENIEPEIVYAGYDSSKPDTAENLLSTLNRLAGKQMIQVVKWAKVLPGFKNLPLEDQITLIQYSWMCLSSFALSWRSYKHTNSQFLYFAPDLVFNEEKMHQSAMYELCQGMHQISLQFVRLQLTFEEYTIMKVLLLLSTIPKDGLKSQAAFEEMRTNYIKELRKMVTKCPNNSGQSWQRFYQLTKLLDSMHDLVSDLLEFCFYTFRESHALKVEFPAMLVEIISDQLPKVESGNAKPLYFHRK

[2] = target: T1, mineralocorticoid receptor (MR), …; assay: split reporter; remark: listed apart in the source

B1: glucocorticoid receptor (GR), NanoBiT fusion GR-SmBiT (receptor)
chain: MDSKESLTPGREENPSSVLAQERGDVMDFYKTLRGGATVKVSASSPSLAVASQSDSKQRRLLVDFPKGSVSNAQQPDLSKAVSLSMGLYMGETETKVMGNDLGFPQQGQISLSSGETDLKLLEESIANLNRSTSVPENPKSSASTAVSAAPTEKEFPKTHSDVSSEQQHLKGQTGTNGGNVKLYTTDQSTFDILQDLEFSSGSPGKETNESPWRSDLLIDENCLLSPLAGEDDSFLLEGNSNEDCKPLILPDTKPKIKDNGDLVLSSPSNVTLPQVKTEKEDFIELCTPGVIKQEKLGTVYCQASFPGANIIGNKMSAISVHGVSTSGGQMYHYDMNTASLSQQQDQKPIFNVIPPIPVGSENWNRCQGSGDDNLTSLGTLNFPGRTVFSNGYSSPSMRPDVSSPPSSSSTATTGPPPKLCLVCSDEASGCHYGVLTCGSCKVFFKRAVEGQHNYLCAGRNDCIIDKIRRKNCPACRYRKCLQAGMNLEARKTKKKIKGIQQATTGVSQETSENPGNKTIVPATLPQLTPTLVSLLEVIEPEVLYAGYDSSVPDSTWRIMTTLNMLGGRQVIAAVKWAKAIPGFRNLHLDDQMTLLQYSWMFLMAFALGWRSYRQSSANLLCFAPDLIINEQRMTLPCMYDQCKHMLYVSSELHRLQVSYEEYLCMKTLLLLSSVPKDGLKSQELFDEIRMTYIKELGKAIVKREGNSSQNWQRFYQLTKLLDSMHEVVENLLNYCFQTFLDKTMSIEFPEMLAEIITNQIPKYSNGNIKKLLFHQK
fold induction of NanoBiT luminescence versus solvent [1]: ~6 fold | fold induction of NanoBiT luminescence versus solvent [2]: ~8 fold

— article doi:10.1101/2023.05.10.540157 (bioRxiv, 2023)
